How the values were obtained:
[1] = tested on: LBL 10097
[2] = tested on: LBL 10081

Q: For “Anthrax lethal factor (Product #169, List Biological Laboratories, Inc)”, which Substrate RFUs after 5 hrs digest, LF 10 pg/ml in 1:10 diluted plasma [1] is on record?
A: 224 RFU

Q: And the Substrate RFUs after 5 hrs digest, LF 20 pg/ml in 1:10 diluted plasma [1]?
A: 222 RFU

Q: What about the Substrate RFUs after 5 hrs digest, LF 50 pg/ml in 1:10 diluted plasma [1] of the same substance?
A: 249 RFU

Q: What about the Substrate RFUs after 5 hrs digest, LF 100 pg/ml in 1:10 diluted plasma [1] of the same substance?
A: 242 RFU

Q: What about the Substrate RFUs after 5 hrs digest, LF 200 pg/ml in 1:10 diluted plasma [1] of the same substance?
A: 256 RFU

Q: What about the Substrate RFUs after 5 hrs digest, LF 500 pg/ml in 1:10 diluted plasma [1] of the same substance?
A: 301 RFU

Q: What about the Substrate RFUs after 5 hrs digest, LF 1000 pg/ml in 1:10 diluted plasma [1] of the same substance?
A: 399 RFU

Q: What about the Substrate RFUs after 24 hrs digest, LF 10 pg/ml in 1:10 diluted plasma [1] of the same substance?
A: 227 RFU

Q: What about the Substrate RFUs after 24 hrs digest, LF 20 pg/ml in 1:10 diluted plasma [1] of the same substance?
A: 223 RFU

Q: What about the Substrate RFUs after 24 hrs digest, LF 50 pg/ml in 1:10 diluted plasma [1] of the same substance?
A: 245 RFU

Q: And the Substrate RFUs after 24 hrs digest, LF 100 pg/ml in 1:10 diluted plasma [1]?
A: 258 RFU

Q: And the Substrate RFUs after 24 hrs digest, LF 200 pg/ml in 1:10 diluted plasma [1]?
A: 286 RFU

Q: And the Substrate RFUs after 24 hrs digest, LF 500 pg/ml in 1:10 diluted plasma [1]?
A: 379 RFU

Q: And the Substrate RFUs after 24 hrs digest, LF 1000 pg/ml in 1:10 diluted plasma [1]?
A: 559 RFU

Q: What about the Peak area Average, 2 hour digest, LF 5 pg/ml plasma [2] of the same substance?
A: 9150 peak area

Q: And the Peak area Average, 2 hour digest, LF 10 pg/ml plasma [2]?
A: 10300 peak area

Q: What about the Peak area Average, 2 hour digest, LF 20 pg/ml plasma [2] of the same substance?
A: 15900 peak area

Q: And the Peak area Average, 2 hour digest, LF 50 pg/ml plasma [2]?
A: 33700 peak area

Q: And the Peak area Average, 3.5 hour digest, LF 5 pg/ml plasma [2]?
A: 12300 peak area

Q: And the Peak area Average, 3.5 hour digest, LF 10 pg/ml plasma [2]?
A: 15900 peak area

Q: What about the Peak area Average, 3.5 hour digest, LF 20 pg/ml plasma [2] of the same substance?
A: 24200 peak area

Q: What about the Peak area Average, 3.5 hour digest, LF 50 pg/ml plasma [2] of the same substance?
A: 49100 peak area

Q: What about the Peak area Average, 5 hour digest, LF 5 pg/ml plasma [2] of the same substance?
A: 15000 peak area

Q: What about the Peak area Average, 5 hour digest, LF 10 pg/ml plasma [2] of the same substance?
A: 22300 peak area

Q: And the Peak area Average, 5 hour digest, LF 20 pg/ml plasma [2]?
A: 32900 peak area

Q: What about the Peak area Average, 5 hour digest, LF 50 pg/ml plasma [2] of the same substance?
A: 66700 peak area

Q: What about the Peak area Average, overnight digest (RT), LF 5 pg/ml plasma [2] of the same substance?
A: 26900 peak area

Q: And the Peak area Average, overnight digest (RT), LF 10 pg/ml plasma [2]?
A: 36200 peak area

Q: And the Peak area Average, overnight digest (RT), LF 20 pg/ml plasma [2]?
A: 57900 peak area

Q: What about the Peak area Average, overnight digest (RT), LF 50 pg/ml plasma [2] of the same substance?
A: 130000 peak area

Q: And the Peak area, 2 hour digest, LF 5 pg/ml plasma, rep 1 [2]?
A: 9410 peak area

Q: And the Peak area, 2 hour digest, LF 5 pg/ml plasma, rep 2 [2]?
A: 8890 peak area

Q: And the Peak area, 2 hour digest, LF 10 pg/ml plasma, rep 1 [2]?
A: 10700 peak area

Q: And the Peak area, 2 hour digest, LF 10 pg/ml plasma, rep 2 [2]?
A: 9970 peak area

Q: What about the Peak area, 2 hour digest, LF 20 pg/ml plasma, rep 1 [2] of the same substance?
A: 16900 peak area

Q: And the Peak area, 2 hour digest, LF 20 pg/ml plasma, rep 2 [2]?
A: 14900 peak area

Q: And the Peak area, 2 hour digest, LF 50 pg/ml plasma, rep 1 [2]?
A: 33700 peak area

Q: And the Peak area, 2 hour digest, LF 50 pg/ml plasma, rep 2 [2]?
A: 33700 peak area

Q: And the Peak area, 3.5 hour digest, LF 5 pg/ml plasma, rep 1 [2]?
A: 11500 peak area

Q: What about the Peak area, 3.5 hour digest, LF 5 pg/ml plasma, rep 2 [2] of the same substance?
A: 13200 peak area

Q: And the Peak area, 3.5 hour digest, LF 10 pg/ml plasma, rep 1 [2]?
A: 16500 peak area

Q: What about the Peak area, 3.5 hour digest, LF 10 pg/ml plasma, rep 2 [2] of the same substance?
A: 15300 peak area

Q: And the Peak area, 3.5 hour digest, LF 20 pg/ml plasma, rep 1 [2]?
A: 24000 peak area

Q: And the Peak area, 3.5 hour digest, LF 20 pg/ml plasma, rep 2 [2]?
A: 24300 peak area

Q: And the Peak area, 3.5 hour digest, LF 50 pg/ml plasma, rep 1 [2]?
A: 49700 peak area

Q: And the Peak area, 3.5 hour digest, LF 50 pg/ml plasma, rep 2 [2]?
A: 48400 peak area

Q: What about the Peak area, 5 hour digest, LF 5 pg/ml plasma, rep 1 [2] of the same substance?
A: 14800 peak area

Q: And the Peak area, 5 hour digest, LF 5 pg/ml plasma, rep 2 [2]?
A: 15100 peak area

Q: And the Peak area, 5 hour digest, LF 10 pg/ml plasma, rep 1 [2]?
A: 22200 peak area

Q: And the Peak area, 5 hour digest, LF 10 pg/ml plasma, rep 2 [2]?
A: 22400 peak area

Q: What about the Peak area, 5 hour digest, LF 20 pg/ml plasma, rep 1 [2] of the same substance?
A: 31600 peak area

Q: What about the Peak area, 5 hour digest, LF 20 pg/ml plasma, rep 2 [2] of the same substance?
A: 34200 peak area

Q: What about the Peak area, 5 hour digest, LF 50 pg/ml plasma, rep 1 [2] of the same substance?
A: 67200 peak area

Q: And the Peak area, 5 hour digest, LF 50 pg/ml plasma, rep 2 [2]?
A: 66100 peak area

Q: What about the Peak area, overnight digest (RT), LF 5 pg/ml plasma, rep 1 [2] of the same substance?
A: 28500 peak area

Q: What about the Peak area, overnight digest (RT), LF 5 pg/ml plasma, rep 2 [2] of the same substance?
A: 25300 peak area

Q: And the Peak area, overnight digest (RT), LF 10 pg/ml plasma, rep 1 [2]?
A: 36500 peak area

Q: And the Peak area, overnight digest (RT), LF 10 pg/ml plasma, rep 2 [2]?
A: 36000 peak area

Q: And the Peak area, overnight digest (RT), LF 20 pg/ml plasma, rep 1 [2]?
A: 58200 peak area

Q: What about the Peak area, overnight digest (RT), LF 20 pg/ml plasma, rep 2 [2] of the same substance?
A: 57600 peak area

Q: And the Peak area, overnight digest (RT), LF 50 pg/ml plasma, rep 1 [2]?
A: 136000 peak area

Q: And the Peak area, overnight digest (RT), LF 50 pg/ml plasma, rep 2 [2]?
A: 124000 peak area

Q: What about the Slope (Peak Area/pg LF), 2 hr digest (Peak Area/pg LF) [2] of the same substance?
A: 553

Q: What about the Slope (Peak Area/pg LF), 3.5 hr digest (Peak Area/pg LF) [2] of the same substance?
A: 811

Q: And the Slope (Peak Area/pg LF), 5 hr digest (Peak Area/pg LF) [2]?
A: 1130

Q: What about the Slope (Peak Area/pg LF), Overnight digest (RT) (Peak Area/pg LF) [2] of the same substance?
A: 2280

Q: And the Substrate RFUs after 5 hrs digest, LF 10 pg/ml in 1:10 diluted plasma [2]?
A: 140 RFU

Q: And the Substrate RFUs after 5 hrs digest, LF 20 pg/ml in 1:10 diluted plasma [2]?
A: 137 RFU

Q: And the Substrate RFUs after 5 hrs digest, LF 50 pg/ml in 1:10 diluted plasma [2]?
A: 137 RFU

Q: And the Substrate RFUs after 5 hrs digest, LF 100 pg/ml in 1:10 diluted plasma [2]?
A: 141 RFU

Q: And the Substrate RFUs after 5 hrs digest, LF 200 pg/ml in 1:10 diluted plasma [2]?
A: 155 RFU

Q: And the Substrate RFUs after 5 hrs digest, LF 500 pg/ml in 1:10 diluted plasma [2]?
A: 190 RFU

Q: And the Substrate RFUs after 5 hrs digest, LF 1000 pg/ml in 1:10 diluted plasma [2]?
A: 256 RFU

Q: What about the Substrate RFUs after 24 hrs digest, LF 10 pg/ml in 1:10 diluted plasma [2] of the same substance?
A: 147 RFU

Q: What about the Substrate RFUs after 24 hrs digest, LF 20 pg/ml in 1:10 diluted plasma [2] of the same substance?
A: 149 RFU

Q: What about the Substrate RFUs after 24 hrs digest, LF 50 pg/ml in 1:10 diluted plasma [2] of the same substance?
A: 152 RFU

Q: What about the Substrate RFUs after 24 hrs digest, LF 100 pg/ml in 1:10 diluted plasma [2] of the same substance?
A: 161 RFU

Q: What about the Substrate RFUs after 24 hrs digest, LF 200 pg/ml in 1:10 diluted plasma [2] of the same substance?
A: 186 RFU

Q: And the Substrate RFUs after 24 hrs digest, LF 500 pg/ml in 1:10 diluted plasma [2]?
A: 248 RFU

Q: And the Substrate RFUs after 24 hrs digest, LF 1000 pg/ml in 1:10 diluted plasma [2]?
A: 354 RFU

Q: And the Substrate RFUs, 1 hour, LF 10 pg/ml [2]?
A: 89 RFU

Q: And the Substrate RFUs, 1 hour, LF 20 pg/ml [2]?
A: 87 RFU

Q: What about the Substrate RFUs, 1 hour, LF 50 pg/ml [2] of the same substance?
A: 88 RFU

Q: What about the Substrate RFUs, 1 hour, LF 100 pg/ml [2] of the same substance?
A: 88 RFU

Q: And the Substrate RFUs, 1 hour, LF 200 pg/ml [2]?
A: 92 RFU

Q: What about the Substrate RFUs, 1 hour, LF 500 pg/ml [2] of the same substance?
A: 97 RFU

Q: What about the Substrate RFUs, 1 hour, LF 1000 pg/ml [2] of the same substance?
A: 114 RFU

Q: What about the Substrate RFUs, 2 hours, LF 10 pg/ml [2] of the same substance?
A: 94 RFU

Q: And the Substrate RFUs, 2 hours, LF 20 pg/ml [2]?
A: 93 RFU

Q: What about the Substrate RFUs, 2 hours, LF 50 pg/ml [2] of the same substance?
A: 95 RFU

Q: And the Substrate RFUs, 2 hours, LF 100 pg/ml [2]?
A: 96 RFU

Q: What about the Substrate RFUs, 2 hours, LF 200 pg/ml [2] of the same substance?
A: 101 RFU

Q: What about the Substrate RFUs, 2 hours, LF 500 pg/ml [2] of the same substance?
A: 116 RFU

Q: What about the Substrate RFUs, 2 hours, LF 1000 pg/ml [2] of the same substance?
A: 148 RFU

Q: What about the Substrate RFUs, 3 hours, LF 10 pg/ml [2] of the same substance?
A: 98 RFU

Q: What about the Substrate RFUs, 3 hours, LF 20 pg/ml [2] of the same substance?
A: 99 RFU

Q: And the Substrate RFUs, 3 hours, LF 50 pg/ml [2]?
A: 100 RFU

Q: And the Substrate RFUs, 3 hours, LF 100 pg/ml [2]?
A: 103 RFU

Q: And the Substrate RFUs, 3 hours, LF 200 pg/ml [2]?
A: 111 RFU

Q: What about the Substrate RFUs, 3 hours, LF 500 pg/ml [2] of the same substance?
A: 131 RFU

Q: What about the Substrate RFUs, 3 hours, LF 1000 pg/ml [2] of the same substance?
A: 177 RFU

Q: What about the Substrate RFUs, 4 hours, LF 10 pg/ml [2] of the same substance?
A: 100 RFU

Q: And the Substrate RFUs, 4 hours, LF 20 pg/ml [2]?
A: 99 RFU

Q: And the Substrate RFUs, 4 hours, LF 50 pg/ml [2]?
A: 102 RFU

Q: And the Substrate RFUs, 4 hours, LF 100 pg/ml [2]?
A: 105 RFU

Q: What about the Substrate RFUs, 4 hours, LF 200 pg/ml [2] of the same substance?
A: 115 RFU

Q: What about the Substrate RFUs, 4 hours, LF 500 pg/ml [2] of the same substance?
A: 142 RFU

Q: What about the Substrate RFUs, 4 hours, LF 1000 pg/ml [2] of the same substance?
A: 202 RFU

Q: What about the Substrate RFUs, 5 hours, LF 10 pg/ml [2] of the same substance?
A: 103 RFU

Q: What about the Substrate RFUs, 5 hours, LF 20 pg/ml [2] of the same substance?
A: 102 RFU

Q: And the Substrate RFUs, 5 hours, LF 50 pg/ml [2]?
A: 106 RFU

Q: What about the Substrate RFUs, 5 hours, LF 100 pg/ml [2] of the same substance?
A: 111 RFU

Q: And the Substrate RFUs, 5 hours, LF 200 pg/ml [2]?
A: 125 RFU

Q: And the Substrate RFUs, 5 hours, LF 500 pg/ml [2]?
A: 157 RFU

Q: And the Substrate RFUs, 5 hours, LF 1000 pg/ml [2]?
A: 224 RFU
